Experimental data from doi:10.1101/2021.11.23.469668 (bioRxiv, 2021).

How the values were obtained:
Test in all cases: SEC
[1] = molecular target: Atlas GC GPL binding pocket mutant R86A (Ancylostoma ceylanicum (endogenous retrovirus Atlas virus))
[2] = molecular target: Atlas GC fusion loop mutant F136A/F137A (Ancylostoma ceylanicum (endogenous retrovirus Atlas virus))
SEC = molecular target: the molecule itself

Molecule: Atlas GC GPL binding pocket mutant R86A (domain or fragment)
- stoichiometry N [1]: 3

Molecule: Atlas GC fusion loop mutant F136A/F137A (domain or fragment)
- stoichiometry N [2]: 3

B1: Atlas virus GC ectodomain fragment (polyprotein residues 2330-2772) (domain or fragment)
chain: CSEVISVTSTEEVCTIQENKETCTFNHATTITLQPLQQQTCLTLNDPEKRPMGMLTVKPDGIKFRCNKKIEFFTRDHQIVSESVHRCHRAGSCHSDECHHVKDTDALPEFSSEANSRPGYTSCSSSCGCITCDGCFFCEPSCLFHRLYAIPTTPTIYSIFYCPSWELEVDAEISLQREDETTTSTIRLLPGRTSTWNNIRFSLIGTIVPQLPILSSAFVTNGRQTSIVKPAYAGQLQSNSVGQLQCPNLEAAKQFECHFSRNLCTCTNALHKVSCTCYDGSVEDHMEALPLPQTSKNFLVFEKDRNIYAKTHVGSALQLHIVAQDLKITTVKHTSHCQVEASDLSGCYSCTSGASLTLSCKSDNGEVLANMKCNEQTHVIRCTESGFINNILLMFDTSEVAADCTAACPGGIVNFTIKGLLAFVNERIISQSYSATDVERNIK
modifications: N-linked glycan at Asn414 (GC numbering)
- stoichiometry N (SEC): 3
